B1: Caspase-8 (Homo sapiens), Q14790 (parent)
chain: MDFSRNLYDIGEQLDSEDLASLKFLSLDYIPQRKQEPIKDALMLFQRLQEKRMLEESNLSFLKELLFRINRLDLLITYLNTRKEEMERELQTPGRAQISAYRVMLYQISEEVSRSELRSFKFLLQEEISKCKLDDDMNLLDIFIEMEKRVILGEGKLDILKRVCAQINKSLLKIINDYEEFSKERSSSLEGSPDEFSNGEELCGVMTISDSPREQDSESQTLDKVYQMKSKPRGYCLIINNHNFAKAREKVPKLHSIRDRNGTHLDAGALTTTFEELHFEIKPHDDCTVEQIYEILKIYQLMDHSNMDCFICCILSHGDKGIIYGTDGQEAPIYELTSQFTGLKCPSLAGKPKVFFIQACQGDNYQKGIPVETDSEEQPYLEMDLSSPQTRYIPDEADFLLGMATVNNCVSYRNPAEGTWYIQSLCQSLRERCPRGDDILTILTEVNYEVSNKDDKKNMGKQMPQPTFTLRKKLVFPSD

Variants of: B1
Conditions: with bcl2_human BCL2, P10415
Sequence of bcl2_human BCL2, P10415 (P10415 whole entry): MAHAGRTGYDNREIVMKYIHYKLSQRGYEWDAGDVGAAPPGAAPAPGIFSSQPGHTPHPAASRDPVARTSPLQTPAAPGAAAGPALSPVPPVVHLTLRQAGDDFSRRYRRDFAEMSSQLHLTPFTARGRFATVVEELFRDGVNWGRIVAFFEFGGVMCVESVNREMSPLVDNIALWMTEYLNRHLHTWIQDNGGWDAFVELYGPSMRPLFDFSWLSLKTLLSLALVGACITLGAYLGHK

| Variant | effect of a mutation on the interaction |
| --- | --- |
| MDFSRNLYDIGEQLDSEDLASLKFLSLDYIPQRKQEPIKDALMLFQRLQEKRMLEESNLSFLKELLFRINRLDLLITYLNTRKEEMERELQTPGRAQISAYRVMLYQISEEVSRSELRSFKFLLQEEISKCKLDDDMNLLDIFIEMEKRVILGEGKLDILKRVCAQINKSLLKIINDYEEFSKERSSSLEGSPDEFSNGEELCGVMTISDSPREQDSESQTLDKVYQMKSKPRGYCLIINNHNFAKAREKVPKLHSIRDRNGTHLDAGALTTTFEELHFEIKPHDDCTVEQIYEILKIYQLMDHSNMDCFICCILSHGDKGIIYGTDGQEAPIYELTSQFTGLKCPSLAGKPKVFFIQASQGDNYQKGIPVETDSEEQPYLEMDLSSPQTRYIPDEADFLLGMATVNNCVSYRNPAEGTWYIQSLCQSLRERCPRGDDILTILTEVNYEVSNKDDKKNMGKQMPQPTFTLRKKLVFPSD [C360S] | increasing interaction |

Source: IntAct's records for PubMed 16183855
